B1: WT1 peptide p221-229 (YSSDNLYQM) (peptide)
peptide: YSSDNLYQM
B2: WT1 peptide P125-133 (ARMFPNAPY) (peptide)
peptide: ARMFPNAPY
B3: WT1 peptide p225-233 (NLYQMTSQL) (peptide)
peptide: NLYQMTSQL
B4: WT1 peptide P119-127 (QASSGQARM) (peptide)
peptide: QASSGQARM
B5: WT1 peptide P131-139 (APYLPSCLE) (peptide)
peptide: APYLPSCLE
B6: WT1 peptide P118-126 (SQASSGQAR) (peptide)
peptide: SQASSGQAR
B7: WT1 peptide P121-129 (SSGQARMFP) (peptide)
peptide: SSGQARMFP
B8: WT1 peptide p228-236 (QMTSQLECM) (peptide)
peptide: QMTSQLECM
B9: WT1 peptide P127-135 (MFPNAPYLP) (peptide)
peptide: MFPNAPYLP
B10: WT1 peptide P128-136 (FPNAPYLPS) (peptide)
peptide: FPNAPYLPS
B11: WT1 peptide p329-337 (GCNKRYFKL) (peptide)
peptide: GCNKRYFKL
B12: WT1 peptide P130-138 (NAPYLPSCL) (peptide)
peptide: NAPYLPSCL
B13: WT1 peptide p235-243 (CMTWNQMNL) (peptide)
peptide: CMTWNQMNL
B14: WT1 peptide P124-132 (printed QARMFPNA) (peptide)
peptide: QARMFPNA
B15: WT1 peptide p239-247 (NQMNLGATL) (peptide)
peptide: NQMNLGATL
B16: WT1 peptide p10-18 human (ALLPAVPSL) (peptide)
peptide: ALLPAVPSL
notes: also called human p10-18
B17: WT1 peptide P120-128 (ASSGQARMF) (peptide)
peptide: ASSGQARMF
B18: WT1 peptide P117-125 (PSQASSGQA) (peptide)
peptide: PSQASSGQA
B19: WT1 peptide p136-144 human (SCLESQPAI) (peptide)
peptide: SCLESQPAI
notes: also called human p136-144
B20: WT1 peptide P129-137 (PNAPYLPSC) (peptide)
peptide: PNAPYLPSC

Columns and labels:
[1] = molecular target: T1, mouse B6 class I antigens (D^b or K^b molecules on the surface of RMA-S cells) (mouse, UniProt P01887 21-119); assay: RMA-S cells incubated with peptide (25 ug/ml), stained with FITC anti-D^b or anti-K^b, flow cytometry
T1 sequence (P01887 21-119): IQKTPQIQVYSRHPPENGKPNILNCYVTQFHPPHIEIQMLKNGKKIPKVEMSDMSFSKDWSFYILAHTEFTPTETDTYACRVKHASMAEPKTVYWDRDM

[2] = molecular target: T1, mouse B6 class I antigens (D^b or K^b …); assay: binding of 9-mer peptides within p117-139 to mouse B6 (H-2^b) class I; RMA-S cell assay, flow cytometry

Row | Binder | Binding Affinity to Mouse MHC Class I (% increase of D^b or K^b on RMA-S cells) [1] [%] | Binding Affinity to Mouse MHC Class I (%) [2] [%]
1 | B1 | 0.8 | –
2 | B2 | – | 1
3 | B3 | 5.8 | –
4 | B4 | – | 2
5 | B5 | – | 1
6 | B6 | – | 2
7 | B7 | – | 1
8 | B8 | 1.2 | –
9 | B9 | – | 2
10 | B10 | – | 1
11 | B11 | 1.2 | –
12 | B12 | – | 79
13 | B13 | 33.6 | –
14 | B14 | – | 1
15 | B15 | 1 | –
16 | B16 | 2.2 | –
17 | B17 | – | 1
18 | B18 | – | 2
19 | B19 | 52 | –
20 | B20 | – | 1

Source: patent US20030215458A1 (published 2003)
